B1: A22 (ssDNA)
DNA: AATTAACCCTCACTAAAGGGCTGAGTCTCAAAACCGCAATACACTGGTTGTATGGTCGAATAAGTTAA
B2: A21 (ssDNA)
DNA: AATTAACCCTCACTAAAGGGCGCTTATTTGTTCAGGTTGGTCTTCCTATTATGGTCGAATAAGTTAA

What was measured:
[1] = target: Hemagglutinin on intact virus A/Port Chalmers/1/73 (H3N2) (Influenza A virus) (UniProt P03438+P03438); assay: cell_activity
[2] = target: Influenza hemagglutinin fragment HA91-261 (globular region) (Influenza A virus (A/Port …, UniProt Q1PUD9 SEQ:1-171)); assay: ELISA; conditions: tags: N-terminal 6xHis (pQE30, E. coli, Ni-NTA purified)
Sequence of Influenza hemagglutinin fragment HA91-261 (globular region) (Influenza A virus (Q1PUD9 107-277): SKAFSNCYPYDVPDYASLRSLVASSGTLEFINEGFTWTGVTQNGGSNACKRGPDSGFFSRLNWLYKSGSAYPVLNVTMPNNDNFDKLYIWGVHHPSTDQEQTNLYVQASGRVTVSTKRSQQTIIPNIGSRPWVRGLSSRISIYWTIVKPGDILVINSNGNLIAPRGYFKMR

Row | Molecule | binding result [2] | further results
1 | AATTAACCCTCACTAAAGGGCTGAGTCTCAAAACCGCAATACACTGGTTGTATGGTCGAATAAGTTAA [A22] | – | activity [1]: 70%
2 | B1 | binds | –
3 | B2 | binds | –
4 | AATTAACCCTCACTAAAGGG (ssDNA) [T3 primer negative control] | – | binding result ([2]; label: biotin): no binding
